The values that follow come from publication PMC10318062 (Nature Communications, 2023).

The labels stand for the following.
B1: C121 (antibody, V domains shown)
VH: not shown
VL: QSALTQPASVSGSPGQSITISCTGTSSDVGSYNLVSWYQQHPGKAPKLMIYEGSKRPSGVSNRFSGSKSGNTASLTISGLQAEDEADYYCCSYAGSSTLVFGGGTKLTVL
B2: COVA1-07 (antibody, V domains shown)
VH: QVQLVESGAEVKKPGSSVKVSCKASGGTLSSYAITWVRQAPGQGLEWVGGIIPIFGTANYAQKFQGRVTITADESTSTAYMELSSLRSEDTAVYYCARVGAYDSSGYSNDYWGQGTLVTVSS
VL: DIQLTQSPATLSLSPGERATLSCRASQSVSSYLAWYQQKPGQAPRLLIYDASNRATGIPARFSGSGSGTDFTLTISSLEPEDFAVYYCQQRSNWPPRVTFGGGTKVEIK
B3: COVA2-14 (antibody, V domains shown)
VH: QVQLVQSGAEVKKPGSSVKVSCKASGGTFSSYAIIWVRQAPGQGLEWMGGIIPIFGTANYAQKFQGRVTITTDESTSTAYMELSSLRSEDTAVYYCARVRYYDSSGYYEDYWGQGTLVTVSS
VL: EIVLTQSPATLSLSPGERATLSCRASQSVSSYLAWYQQEPGQAPRLLIYDASNRATGIPARFSGSGSGTDFTLTISSLEPEDFAVYYCQQRSNWPPMYTFGQGTKVEIK
B4: BD-604 (antibody, V domains shown)
VH: EVQLVESGGGLIQPGGSLRLSCAASGIIVSSNYMTWVRQAPGKGLEWVSVIYSGGSTFYADSVKGRFTISRDNSKNTLYLQMSSLRAEDTAVYYCARDLGPYGMDVWGQGTTVTVSS
VL: DIQLTQSPSFLSASVGDRVTITCRASQGISSDLAWYQQKPGKAPNLLIYAASTLQSGVPSRFSGSGSGTEFTLTISSLQPEDFATYYCQQLNSDLYTFGQGTKLEIK
B5: CC12.1 (antibody, V domains shown)
VH: EVQLVESGGGLIQPGGSLRLSCAASGLTVSSNYMSWVRQAPGKGLEWVSVIYSGGSTFYADSVKGRFTISRDNSKNTLYLQMNSLRAEDTAVYYCARDLDVYGLDVWGQGTTVTVSS
VL: DIVMTQSPSFLSASVGDRVTITCRASQGISSYLAWYQQKPGKAPKLLIYAASTLQSGVPSRFSGSGSGTEFTLTISSLQPEDFATYYCQQLNSYPPKFTFGPGTKVEIK
B6: COVA2-10 (antibody, V domains shown)
VH: EVQLLESGGGLVQPGGSLKLSCAASGFTFSSYAMSWVRQAPGKGLEWVSAISGSGSNTYYADSVKGRFTISRDNSKNTLYLQMNSLRAEDTAVYYCAKGLRGQQLVIPTEYFQHWGQGTLVTVSS
VL: not shown
B7: BD-629 (antibody, V domains shown)
VH: EVQLVESGGGLIQPGGSLRLSCAASEFIVSRNYMSWVRQAPGKGLEWVSVIYSGGSTYYADSVKGRFTISRDNSKNTLNLQMNSLRAEDTAVYYCARDYGDYYFDYWGQGTLVTVSS
VL: EIVLTQSPGTLSLSPGERATLSCRASQGVSSFLAWYQQKPGQAPRLLIHGASSRATGIPDRFSGSGSGTDFTLTITRLEPEDFAVYYCQQYGSSPRTFGQGTKVEIK
B8: CC12.3 (antibody, V domains shown)
VH: QVQLVESGGGLIQPGGSLRLSCAASGFTVSSNYMSWVRQAPGKGLEWVSVIYSGGSTFYADSVKGRFTISRDNSKSTLYLQMNSLRVEDTAVYYCARDFGDFYFDYWGQGTLVTVSS
VL: not shown
B9: C144 (antibody, V domains shown)
VH: EVQLVESGGGLIQPGGSLRLSCAASGFTVSNNYMSWVRQAPGKGLEWVSVIYSGGSTYYADSVKGRFTISRDKSKNTLYLQMNRLRAEDTAVYYCAREGEVEGYNDFWSGYSRDRYYFDYWGQGTLVTVSS
VL: QSALTQPASVSGSPGQSITISCTGTSSDVGGYNYVSWYQQHPGKAPKLMIYDVSNRPSGVSNRFSGSKSGNTASLTISGLQAEDEADYYCSSYTSSSTRVFGTGTKVTVL
B10: C110 (antibody, V domains shown)
VH: QVQLQQSGAEVKKPGESLKISCKGSGYSFTSYWIGWVRQMPGKGLEWMGIIYPGDSDTRYSPSFQGQVTISADKSISTAYMQWSSLKASDTAMYYCARSFRDDPRIAVAGPADAFDIWGQGTMVTVSS
VL: DIQMTQSPSTLSASVGDRVTITCRASQSISYWLAWYQQKPGKAPKLLIYQASSLESGVPSRFSGSESGTEFTLTISSLQPDDFATYYCQQYNSYPYTFGQGTKLEIK
B11: C119 (antibody, V domains shown)
VH: QVQLVQSGAEVKKPGASVKVSCKASGYTFTSYYMHWVRQAPGQGLEWMGIINPSGGSTSYAQKLQGRVTMTRDTSTSTVYMELSSLRSEDTAVYYCARANHETTMDTYYYYYYMDVWGKGTTVTVSS
VL: QSALTQPASVSGSPGQSITISCTGTSSDVGGYKYVSWYQRHPGKAPKLMIYDVSNRPSGVSNRFSGSKSGNTASLTISGLQAEDEADYYCSSYTSSSTSVVFGGGTQLTVL
B12: BD-236 (antibody, V domains shown)
VH: EVQLVESGGGLIQPGGSLRLSCAASGITVSSNYMSWVRQAPGKGLEWVSVIYSGGSTDYADSVKGRFTISRDKSKNTLYLQMNSLRAEDTAVYYCARDLGEAGGMDVWGQGTTVTVSS
VL: AIQLTQSPSSLSASVGDRVTITCRASQGISSYLAWYQQKPGKAPKLLIYAASTLQSGVPSRFSGSGSGTDFTLTISSLQPEDFATYYCQQLNSYPPAFGGGTKVEIK
B13: BD-368-2 (antibody, V domains shown)
VH: EVQLLESGGGVVQPGGSLRLSCAASGFAFTTYAMNWVRQAPGRGLEWVSAISDGGGSAYYADSVKGRFTISRDNSKNTLYLQMNSLRAEDTAVYYCAKTRGRGLYDYVWGSKDYWGQGTLVTVSS
VL: AIQLTQSPSSLSASVGDRVTITCRASQGISSYLAWYQQKPGKAPKLLIYAASTLQSGVPSRFSGSGSGTDFTLTISSLQPEDFATYYCQQLNSYPPAFGGGTKVEIK
B14: C002 (antibody, V domains shown)
VH: EVQLVESGGGVVQPGRSLRLSCAASGFTFSIYGMHWVRQAPGKGLEWVAVISYDGSNKYYADSVKGRFTISRDNSKNTLYLQMNSLRAEDTAVYYCAKEGRPSDIVVVVAFDYWGQGTLVTVSS
VL: not shown
B15: C105 (antibody, V domains shown)
VH: QVQLVESGGGLIQPGGSLRLSCAASGFTVSSNYMSWVRQAPGKGLEWVSVIYSGGSTYYADSVKGRFTISRDNSKNTLYLQMNSLRAEDTAVYYCARGEGWELPYDYWGQGTLVTVSS
VL: QSALTQPPSGSGSPGQSVTISCTGTSSDVGGYKYVSWYQQHPGKAPKLMIYEVSKRPSGVPDRFSGSKSGNTASLTVSGLQAEDEADYYCSSYEGSNNFVVFGGGTKLTVL
B16: COVA1-18 (antibody, V domains shown)
VH: EVQLVESGGGLVQPGGSLRLSCAASGFTVSSNYMSWVRQAPGKGLEWVSVIYSGGSTYYADSVKGRFTISRDNSKNTLYLQMNSLRAEDTAVYYCARVEWAAAGTFYWGQGTLVTVSS
VL: QSALTQEPSLTVSPGGTVTLTCGSSTGAVTSGHYPYWFQQKPGQAPRTLIYDTSNKRSWTPARFSGSLLGGKAALTLSGAQPEDEAEYYCLLSYSGVWVFGGGTKLTVL

This assay deals with SARS-CoV-2 hexaproline stabilized pre-fusion spike glycoprotein (S6P) (SARS-CoV-2, ancestral (Wuhan-Hu-1 …, UniProt P0DTC2, stabilised)).
For B1, the binding result is reported as “binds”.

For the molecule B2, the binding result is on record as “binds”.

Turning to B3, the binding result is reported as “binds”.

For the molecule B4, the binding result was “binds”.

Take B5: the binding result is recorded as “binds”.

As to B6, the binding result is given as “binds”.

With B7, the binding result is given as “binds”.

With B8, the binding result is listed as “binds”.

Turning to B9, the binding result is listed as “binds”.

Regarding B10, the binding result is recorded as “binds”.

B11: the binding result is recorded as “binds”.

Take B12: the binding result was “binds”.

With B13, the binding result was “binds”.

Take B14: the binding result was “binds”.

Consider B15, for which the binding result was “binds”.

Consider B16, for which the binding result is “binds”.
